{
  "source": "paper PMC10871540",
  "key": {"[1]": {"molecular_target": "biotinylated UNC-6ΔC (C. elegans) (UniProt P34710)", "sequence (P34710 22-461, stated change not applied)": "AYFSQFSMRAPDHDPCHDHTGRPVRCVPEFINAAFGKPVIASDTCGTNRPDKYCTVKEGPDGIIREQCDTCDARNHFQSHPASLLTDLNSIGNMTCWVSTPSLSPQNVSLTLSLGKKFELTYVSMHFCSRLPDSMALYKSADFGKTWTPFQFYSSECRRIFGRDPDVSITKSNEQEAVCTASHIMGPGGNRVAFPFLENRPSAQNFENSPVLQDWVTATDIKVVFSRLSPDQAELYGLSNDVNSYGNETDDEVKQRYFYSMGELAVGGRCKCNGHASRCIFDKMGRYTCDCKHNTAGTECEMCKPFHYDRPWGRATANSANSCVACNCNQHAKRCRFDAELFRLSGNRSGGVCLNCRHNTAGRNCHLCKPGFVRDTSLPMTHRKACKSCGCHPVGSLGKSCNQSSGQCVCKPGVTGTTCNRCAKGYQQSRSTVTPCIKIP", "assay": "SPR"}, "UNC-6ΔC (C. elegans)": {"molecular_target": "UNC-6ΔC (C. elegans) (UniProt P34710)", "sequence (P34710 22-461, stated change not applied)": "as above", "assay": "SEC"}, "[2]": {"molecular_target": "UNC-5 ECD displayed on yeast (C. elegans)", "sequence (Q26261 whole entry, the tested form may be a part)": "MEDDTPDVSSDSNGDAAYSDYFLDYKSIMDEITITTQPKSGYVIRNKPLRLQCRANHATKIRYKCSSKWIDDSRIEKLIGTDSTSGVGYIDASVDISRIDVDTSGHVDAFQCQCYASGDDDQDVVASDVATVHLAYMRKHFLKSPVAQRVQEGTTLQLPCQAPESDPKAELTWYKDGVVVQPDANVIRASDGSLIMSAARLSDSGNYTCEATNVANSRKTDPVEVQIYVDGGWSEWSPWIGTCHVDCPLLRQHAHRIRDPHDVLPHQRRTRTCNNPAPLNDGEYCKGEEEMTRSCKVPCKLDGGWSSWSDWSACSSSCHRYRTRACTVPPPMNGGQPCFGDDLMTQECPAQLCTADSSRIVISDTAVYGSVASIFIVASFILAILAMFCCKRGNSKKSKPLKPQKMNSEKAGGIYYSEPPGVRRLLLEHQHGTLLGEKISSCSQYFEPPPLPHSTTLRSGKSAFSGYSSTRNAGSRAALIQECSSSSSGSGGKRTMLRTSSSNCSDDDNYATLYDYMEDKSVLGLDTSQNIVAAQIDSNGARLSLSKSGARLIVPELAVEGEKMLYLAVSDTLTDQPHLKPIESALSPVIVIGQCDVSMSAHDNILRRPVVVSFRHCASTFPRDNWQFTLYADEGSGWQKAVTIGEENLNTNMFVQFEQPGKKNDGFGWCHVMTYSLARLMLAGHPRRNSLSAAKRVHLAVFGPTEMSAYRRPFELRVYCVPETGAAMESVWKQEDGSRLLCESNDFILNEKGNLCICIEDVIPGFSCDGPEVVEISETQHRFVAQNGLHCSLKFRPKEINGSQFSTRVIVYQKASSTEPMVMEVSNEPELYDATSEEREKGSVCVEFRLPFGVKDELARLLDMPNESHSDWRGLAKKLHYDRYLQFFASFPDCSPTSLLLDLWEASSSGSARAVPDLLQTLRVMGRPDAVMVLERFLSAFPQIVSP", "assay": "flow cytometry on cells"}, "[3]": {"molecular_target": "UNC-5 N188K ectodomain on yeast (C. elegans)", "assay": "flow cytometry on cells"}, "[4]": {"molecular_target": "UNC-5 N18K ectodomain on yeast (C. elegans)", "assay": "flow cytometry on cells"}},
  "data": [
    {"substance": "UNC-5 ECD R17E R70E (receptor)", "values": [
      {"measurement": "KD with heparin", "setting": "[1]", "result": "50000 to 100000", "unit": "nM"},
      {"measurement": "fold loss of affinity against WT UNC-5", "setting": "[1]", "result": 2, "unit": "fold"}
    ]},
    {"substance": "UNC-5 ECD (receptor)", "values": [
      {"measurement": "stoichiometry N", "setting": "UNC-6ΔC (C. elegans)", "result": 1},
      {"measurement": "KD with heparin", "setting": "[1]", "result": 1200, "unit": "nM"},
      {"measurement": "Kd", "setting": "[1]", "result": 46000, "unit": "nM"}
    ]},
    {"substance": "biotinylated UNC-6ΔC (from UniProt P34710 22-461) (ligand)", "values": [
      {"measurement": "KD with heparin", "setting": "[2]", "result": 35, "unit": "nM"},
      {"measurement": "Kd", "setting": "[3]", "result": 16.4, "unit": "nM"},
      {"measurement": "Kd", "setting": "[4]", "result": 8.2, "unit": "nM"}
    ]}
  ]
}
